Reference: patent US7968081B2, “Peptide for diagnosing, preventing and treating atherosclerosis and uses thereof” (Kyungpook National University Industry—Academic Cooperation …, priority 2007, dated 2011)
Ends that are not written are not given here. * marks the point of attachment. FITC = O=C1OC2(c3ccc(O)cc3Oc3cc(O)ccc32)c2ccc(NC(=S)*)cc21

Columns and labels:
[1] = test system: atherosclerotic plaque tissues; assay: In vivo atherosclerotic targeting of fluorescent dye-conjugated peptide (fluorescence microscopy of frozen sections); settings: atherosclerosis-induced mice, circulation 15 min
Excerpt: C57BL/6 mice (Ldlr−/−) into which deficiency of a low-density lipoprotein (LDL) receptor was introduced by a genetic engineering technique were fed daily for 10 weeks with 3 g of high-cholesterol diet, thereby inducing atherosclerosis in animals. The high-cholesterol diet was a special animal feed containing 1.25% cholesterol, 15% fat and 0.5% cholate (Oriental Yeast Co., Japan).
Here, the peptide was synthesized by tagging an N-terminus of the peptide with FITC (fluorescein isothiocyanate) as a green fluorescent dye. The synthesized FITC-CRKRLDRNC peptide and a control peptide (FITC-NSSVDK) at final blood concentrations of 50 μM were injected into the atherosclerosis-induced mice via the left ventricle of animals, followed by circulation for 15 min. Thereafter, the aortae were removed from each mouse, and frozen sections were prepared, followed by Oil Red O (fat marker, Sigma-Aldrich, USA) staining or vWF (vascular endothelial cell marker, 1:5000 dilution, Abcam, USA) and Mac-3 (macrophage marker, 1:50 dilution, BD, USA) staining (Matter et al., Circulation Research, 95:1225-1233, 2004). In order to stain nuclei in tissues, a mounting medium containing a nuclear staining dye, 4′,6-diamidino-2-phenylindole (DAPI) (manufactured by Molecular Probe, USA) was treated on a slide, according to a conventional method known in the art, followed by fluorescence microscopic examination.

[2] = target: T1, IL-4R (Mus musculus, UniProt P16382); assay: Histological distribution of peptide and IL-4R in atherosclerotic plaque tissues; assay type: in vivo, mice; settings: 50 μM final concentration in blood, circulation 15 min; IL-4R antibody staining
T1 construct: from tissue; host or cells: aorta / atherosclerotic plaque of Ldlr-/- mice
T1 sequence (P16382 26-810): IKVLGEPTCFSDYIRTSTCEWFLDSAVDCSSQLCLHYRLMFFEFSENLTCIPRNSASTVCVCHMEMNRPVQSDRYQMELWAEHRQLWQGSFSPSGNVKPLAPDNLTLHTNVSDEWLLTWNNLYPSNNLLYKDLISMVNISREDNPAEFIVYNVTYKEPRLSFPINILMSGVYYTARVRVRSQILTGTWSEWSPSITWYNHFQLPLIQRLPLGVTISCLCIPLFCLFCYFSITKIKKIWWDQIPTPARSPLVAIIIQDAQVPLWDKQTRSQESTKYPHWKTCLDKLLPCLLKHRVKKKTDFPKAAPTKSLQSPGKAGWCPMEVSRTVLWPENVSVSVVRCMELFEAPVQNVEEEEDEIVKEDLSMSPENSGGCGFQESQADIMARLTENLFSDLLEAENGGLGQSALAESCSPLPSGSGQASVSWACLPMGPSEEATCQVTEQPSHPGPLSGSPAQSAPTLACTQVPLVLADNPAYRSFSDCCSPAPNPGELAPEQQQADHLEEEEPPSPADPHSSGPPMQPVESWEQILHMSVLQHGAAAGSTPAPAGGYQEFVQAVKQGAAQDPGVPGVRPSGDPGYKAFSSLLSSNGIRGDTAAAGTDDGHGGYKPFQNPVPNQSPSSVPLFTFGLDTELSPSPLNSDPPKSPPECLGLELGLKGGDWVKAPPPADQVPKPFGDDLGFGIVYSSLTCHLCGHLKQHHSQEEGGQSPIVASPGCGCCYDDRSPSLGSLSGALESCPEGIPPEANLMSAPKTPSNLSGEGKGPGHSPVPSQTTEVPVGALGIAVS
Procedure: In order to ascertain a receptor that binds to the peptide of the present invention, binding of the peptide was examined for various receptors. Out of those receptors, the results for IL-4R are as follows. First, fluorescein (FITC)-conjugated peptide of the present invention at a final concentration of 50 μM was injected into the blood of experimental animals, followed by circulation for 15 min. Thereafter, the aortae were removed from animals, and a frozen section slide was prepared. Then, the tissue section was stained by reaction of the section with antibodies (1:200 dilution, BD, USA) directed against IL-4R, at room temperature for 1 hour. In order to stain the tissue nuclei, DAPI was treated on the slide which was then examined under a fluorescence microscope (Joshi et al., Cancer Research, 61:8058-8061, 2001).

[3] = target: T2, IL-4R (Homo sapiens, UniProt P24394); assay: Bindability of peptide to IL-4R-expressing CHO-K1 cells (fluorescence microscopy); assay type: binding; settings: 10 μM peptide, room temperature, 1 hour
T2 sequence (P24394 26-825): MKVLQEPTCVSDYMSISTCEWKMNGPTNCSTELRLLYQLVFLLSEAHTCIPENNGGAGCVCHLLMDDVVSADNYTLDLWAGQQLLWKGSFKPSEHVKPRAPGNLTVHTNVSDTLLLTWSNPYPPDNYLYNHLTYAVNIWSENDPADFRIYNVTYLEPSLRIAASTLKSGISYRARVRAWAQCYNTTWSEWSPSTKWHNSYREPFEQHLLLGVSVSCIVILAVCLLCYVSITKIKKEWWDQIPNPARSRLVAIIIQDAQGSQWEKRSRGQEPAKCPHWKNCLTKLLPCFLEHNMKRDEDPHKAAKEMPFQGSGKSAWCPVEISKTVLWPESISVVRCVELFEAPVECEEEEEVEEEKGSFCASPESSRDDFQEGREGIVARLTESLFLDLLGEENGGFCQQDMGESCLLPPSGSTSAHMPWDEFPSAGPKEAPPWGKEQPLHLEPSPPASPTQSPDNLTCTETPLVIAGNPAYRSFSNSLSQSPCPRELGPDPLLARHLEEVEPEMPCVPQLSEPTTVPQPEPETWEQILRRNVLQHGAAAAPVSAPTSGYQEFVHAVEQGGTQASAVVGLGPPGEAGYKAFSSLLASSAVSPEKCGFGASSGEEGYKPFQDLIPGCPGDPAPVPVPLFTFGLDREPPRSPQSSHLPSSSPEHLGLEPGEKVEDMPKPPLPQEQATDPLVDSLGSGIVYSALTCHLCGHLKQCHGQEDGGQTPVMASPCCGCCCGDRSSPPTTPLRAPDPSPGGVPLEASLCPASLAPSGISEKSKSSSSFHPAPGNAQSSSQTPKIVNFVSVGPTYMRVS
Excerpt: In order to further confirm roles of IL-4R as the receptor for the peptide of the present invention, a plasmid capable of expressing IL-4R (Cat. #TC119877, Origene, USA) was introduced into IL-4R-deficient CHO-K1 cells according to a conventional method known in the art, followed by expression of IL-4R, and binding of IL-4R with the peptide of the present invention was examined.
The cells were stained with antibodies (1:200 dilution) directed against. IL-4R and cell nuclei were stained with DAPI, followed by fluorescence microscopic examination. As a result, a large amount of IL-4R (red fluorescence) was present on the cell surface (FIG. 6B). Next, CHO-K1 and CHO-K1/IL-4R cells were reacted with 10 μM of the FITC-C-RKRLDRNC peptide at room temperature for 1 hour.

[4] = target: T2, IL-4R; assay: Bindability of peptide to HT-1376 cells with inhibited expression of IL-4R (siRNA); assay type: binding; design: HT-1376 cells that essentially show constitutive expression of IL-4R; endogenous in cells; host or cells: HT-1376
Procedure: Silencing RNA for IL-4R (Cat. #16708A, Ambion, USA) was introduced into HT-1376 cells that essentially show constitutive expression of IL-4R, according to a conventional method known in the art, and treated for 24 hours to thereby result in substantially no expression of IL-4R, followed by evaluation of peptide binding. More specifically, 10 nM of IL-4R silencing RNA synthesized by the manufacturer was mixed with a siPORT™ NeoFX™ lipid transfection agent (Ambion, USA), and the mixture was treated for 24 hours on HT-1376 cells grown in a 4-well chamber slide, such that IL-4R silencing RNA is incorporated into the cells. Thereafter, the culture medium was replaced with one containing 10% bovine serum and the cells were recovered for 24 hours. After staining of cells with IL-4R antibodies and nuclear DAPI staining under the same conditions as in FIG. 6, a cellular expression level of IL-4R was examined. After IL-4R staining, the FITC-CRKRLDRNC peptide was reacted with the cells under the same conditions as in FIG. 6, and a binding degree of the peptide was measured.

- position of peptide (green fluorescence) relative to IL-4R (red fluorescence) in atherosclerotic plaque tissues [2]: almost identically positioned
- binding to CHO-K1/IL-4R cells (IL-4R-expressing) [3]: green fluorescence due to the peptide
- binding to IL-4R-deficient CHO-K1 cells [3]: no fluorescence arising from the peptide
- binding to HT-1376/siIL-4R cells (IL-4R silencing RNA-treated) ([4]; same conditions as in FIG. 6): substantially no binding
- binding to mock silencing RNA-treated HT-1376 cells ([4]; same conditions as in FIG. 6): good bindability
- binding to HT-1376 cells (constitutive expression of IL-4R) ([4]; same conditions as in FIG. 6 (10 μM, room temperature, 1 hour)): active binding
Substance: FITC-CRKRLDRNC ({FITC}-CRKRLDRNC; cysteine pairing not given here) [FITC-CRKRLDRNC peptide, called the peptide of the present invention in b132]
- peptide detection in cerebral tissues ([1]; 50 μM): not detected
- peptide detection in pulmonary tissues ([1]; 50 μM): not detected
- peptide found in aortic atherosclerotic plaque tissues (green fluorescence) ([1]; final blood concentration 50 μM via left ventricle): more targeted in plaque tissues
